# Results taken from the supplement of paper PMC10126150.
# ± gives the standard deviation of the averaged measurements.
# Tested on: ATP
# Assay: switch fluorescence ratio, 500 uM ATP over buffer (Cy3 cluster intensity, sum of 5 cycles each) (fold (ratio)); higher = stronger signal-on switching upon ATP binding; sequences stand for … in TCGTCGGCAGCGTCAGATGTGTATAAGAGACAGTTTTTTTTTTTTTTTTTTTTTTTTT…TC
# Settings: aptamer strand: ATP DNA aptamer (quencher-CACCTGGGGGAGTATTGCGGAGGAAGG + anchor), 100 nM annealed; ATP concentration: 500 uM
# Summary of the method: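 Switching-strand clusters labelled with Cy3 on a modified Illumina MiSeq flow-cell were annealed to 100 nM quencher-labelled ATP aptamer, imaged in selection buffer, and re-imaged after 15 min with 500 uM ATP at 22 °C. This was done over five cycles with NaOH stripping and re-annealing in between. The fluorescence ratio is summed target-cycle over summed buffer-cycle Cy3 intensity per cluster, averaged per switch-domain sequence, excluding clusters outside 100-1000 RFU.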
# 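Further: ATP exposure 15 min at 22 °C before imaging.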
row,Sequence,switch fluorescence ratio
1,TTCCTTTGGG,0.964 ± 0.019
2,TCCGGTATCG,1.04 ± 0.016
3,TGGATACTTA,1.02 ± 0.013
4,GGACCAAACG,1.05 ± 0.024
5,CCTACAGTGA,1.752 ± 0.015
6,CTCCACGGGA,1.144 ± 0.011
7,GATTTTGCGA,0.983 ± 0.033
8,AATATTAGGT,0.995 ± 0.023
9,CATGAATGGA,1.01 ± 0.017
10,ATGGAGGGGG,1.02 ± 0.047
11,CTCAGCCATT,1.36 ± 0.039
12,TTAGGGGCAC,0.993 ± 0.018
13,ATGAGGCTTT,1.02 ± 0.011
14,TCATCGCTTT,1.08 ± 0.021
15,TTATGGGTCA,0.983 ± 0.025
16,TTAGTGGTTG,0.992 ± 0.014
17,TGTTATGAGT,0.99 ± 0.036
18,TCAAGGTCCT,1.127 ± 0.0091
19,GAACTATTTC,1.036 ± 0.0019
20,CCAATAGTTC,1.08 ± 0.022
21,TTTGTAGAGT,1.01 ± 0.034
22,ACGAGAGATT,1.42 ± 0.48
23,GCAAGAGATG,1.01 ± 0.027
24,TTCCATATTT,1.02 ± 0.026
25,CGTACCTGCG,1.06 ± 0.042

row,Sequence,switch fluorescence ratio
1,CAGGGGTGCT,1.03 ± 0.03
2,AGGGTTTTAG,0.994 ± 0.019
3,AGAGAATGCG,1.02 ± 0.049
4,TTTTTTGCTC,1.02 ± 0.033
5,CTTATTAGGC,1.05 ± 0.042
6,ATGAGGCGAA,1.01 ± 0.011
7,AATTCAAAAA,1.02 ± 0.021
8,GCCGAAGGGT,1.02 ± 0.03
9,GGGAAGGCGT,1.12 ± 0.14
10,ATGGGTCACG,0.987 ± 0.012
11,GTTGGCGGGA,1.02 ± 0.042
12,AGCATTACCG,1.165 ± 0.0045
13,TTTCCATAAG,1.007 ± 0.0022
14,AAAACTTTGA,1 ± 0.017
15,ACACGGTGAT,1.056 ± 0.0056
16,AAAATAGAGC,1.05 ± 0.062
17,GGTGGTGGAC,0.992 ± 0.037
18,GGACCGGGAC,1.12 ± 0.11
19,TCAGGCGGGC,1.015 ± 0.0058
20,GTATTCGTTT,1 ± 0.028
21,CGGCACCACA,1.08 ± 0.015
22,ATGATTAGGA,0.987 ± 0.037
23,CGTTTAACAC,0.997 ± 0.02
24,TAACGGGGGA,1.01 ± 0.062
25,TGGTGGAGCA,0.986 ± 0.024

row,Sequence,switch fluorescence ratio
1,GTATAAACCC,1.03 ± 0.019
2,GAAAGTGAGA,1.01 ± 0.056
3,TATCAGGTCC,0.9982 ± 0.0069
4,GTCGAGGGGA,1.01 ± 0.035
5,CGGTTGGGAG,1.019 ± 0.0064
6,GGTCAATTAT,1.05 ± 0.068
7,GGAAGATTTT,0.989 ± 0.058
8,AAGGGGTGAA,0.989 ± 0.017
9,GCTTACTCAT,1.09 ± 0.043
10,TAAAGCTAGG,0.995 ± 0.065
11,GCCTTATTTT,1 ± 0.027
12,AAAGGGTTTG,1.01 ± 0.033
13,TTTGGTCCGG,1.01 ± 0.029
14,TTTAAGTAGT,1.01 ± 0.028
15,CGGGGCCGGG,0.996 ± 0.017
16,TCTTTACCGA,1.02 ± 0.036
17,TCTATTACGC,1 ± 0.047
18,AGGCTATCCC,0.992 ± 0.033
19,GACTTTTACC,1.07 ± 0.027
20,TTTCAAATTC,0.981 ± 0.026
21,ACCGCTCAGG,1.022 ± 0.0093
22,TTTCCATTAT,1.01 ± 0.058
23,TACTTGCGGA,1.03 ± 0.042
24,AAAAGCGTAG,1.01 ± 0.015
25,CGTTTTGCAG,1.03 ± 0.032

row,Sequence,switch fluorescence ratio
1,GACTTGCTGG,0.9876 ± 0.0044
2,ACGTTTTACA,1.183 ± 0.0076
3,ACCGCTGGTT,0.97 ± 0.014
4,GAGATATACT,1.06 ± 0.017
5,ATTTTGAAAG,1.01 ± 0.022
6,TTTGTCGATA,1.05 ± 0.025
7,TTGTGGGGCA,1.02 ± 0.021
8,TTAAACGGAC,1.36 ± 0.021
9,ATGCCGGGGG,1 ± 0.021
10,AGGGGTGTGT,1.01 ± 0.019
11,AGTAATTGAC,1.1 ± 0.013
12,ACTTTTCTCT,1.02 ± 0.021
13,TTCGGGGGAG,0.979 ± 0.026
14,CGTTGGGAAG,0.9779 ± 0.0087
15,GGGAGCAAAG,1.04 ± 0.026
16,TTCTTTAATT,0.963 ± 0.01
17,GATAAAGACG,0.9893 ± 0.0059
18,CTTTTTAGTC,1.03 ± 0.013
19,GATAGTCTTG,0.985 ± 0.023
20,TTAAATGAAT,0.991 ± 0.022
21,AAAGCCGTTT,1.2 ± 0.27
22,CGTTTTTTTA,0.992 ± 0.018
23,GATTGTTCTG,0.9804 ± 0.0049
24,GGCGTATATC,1.02 ± 0.023
25,TCAGTTGTCA,0.981 ± 0.017

row,Sequence,switch fluorescence ratio
1,GATCGGGCTA,0.9664 ± 0.0014
2,AGGGGCGCCG,1 ± 0.06
3,CGAGTTTTTT,1 ± 0.021
4,TATATGTTTT,0.968 ± 0.013
5,AGGATGGGG,0.9741 ± 0.0069
6,CATATGTTAG,1 ± 0.038
7,AAGGACAGGA,1.03 ± 0.026
8,ACTTCGGTTT,1.01 ± 0.035
9,GACGAGCGGT,1.3 ± 0.22
10,TGCAGTGAAT,0.999 ± 0.026
11,AGGCCCCCGA,1.02 ± 0.066
12,CAGTTAGTGT,1.001 ± 0.00021
13,TTTGGCAGTC,1.1 ± 0.13
14,GCAGCTGGGT,1.064 ± 0.0034
15,GGATTAGGTA,1 ± 0.021
16,GTTATAGCGG,0.976 ± 0.018
17,ACGTTGGTGC,1.06 ± 0.029
18,TAAGCTTTTG,1.025 ± 0.0084
19,GTTACTGGCC,1.01 ± 0.0068
20,TTATGTTAGG,0.97498 ± 0.00083
21,TGGTATTGGT,0.9655 ± 0.0041
22,TTTAACAGTA,1.04 ± 0.044
23,ATGCGGTCGG,1.02 ± 0.045
24,AATACGGGGT,1.03 ± 0.033
25,CTTTTGTGTC,0.9866 ± 0.0071

row,Sequence,switch fluorescence ratio
1,AGTAAAAAAT,0.9891 ± 0.0066
2,GCGGGTTTGG,1.01 ± 0.018
3,ATCGCTTAAT,1.03 ± 0.049
4,GCCTTCTGGA,1.05 ± 0.036
5,CTCTCGGATG,1.01 ± 0.011
6,GGTATTTGTT,1.01 ± 0.032
7,TTCCGGGCTT,1.41 ± 0.38
8,TCGACCTTCT,1.77 ± 0.17
9,AGACAAGGGC,1.06 ± 0.084
10,GTTATGTCTG,1.03 ± 0.065
11,TTGCATTTGG,1.01 ± 0.088
12,TGATGCACGG,1.04 ± 0.021
13,CAGTTGGTC,0.995 ± 0.037
14,TATATTCGCT,0.988 ± 0.012
15,CGATCAATAT,2.38 ± 0.035
16,GCGTTTAACT,0.9888 ± 0.008
17,AGAGTGCGTA,0.989 ± 0.023
18,AGTGGGGGGA,1.02 ± 0.028
19,CAGGTTAATG,1.0027 ± 0.00049
20,TATAAGGCGC,0.949 ± 0.032
21,GGGTATATTG,0.983 ± 0.011
22,AATACGGGGA,1.02 ± 0.024
23,ATTGTTTACA,0.969 ± 0.051
24,TCCAGGCGTA,1.021 ± 0.0089
25,ATGGTACCCT,1.038 ± 0.0052

row,Sequence,switch fluorescence ratio
1,AACTTTGTTT,0.9832 ± 0.0047
2,TTGGATTAGG,1.01 ± 0.024
3,GCTTTATGCT,0.9714 ± 0.0025
4,AATCTTTGCT,1.011 ± 0.0063
5,ATAAAAAAAG,1.05 ± 0.021
6,TCCGAGGGTT,1.214 ± 0.011
7,GGTTTATCGT,0.974 ± 0.022
8,GGTTTTTAAG,0.995 ± 0.023
9,ATATAGGTTT,1.01 ± 0.0081
10,CCGGATGGTG,1.017 ± 0.0044
11,ATGGGTAGAG,1 ± 0.022
12,GCTGGTTTCG,1.033 ± 0.0054
13,AGTCTAAGGG,0.993 ± 0.013
14,GAGTTAGTAA,0.999 ± 0.045
15,CTGTCGAGTA,1.13 ± 0.19
16,TATATCTAAA,0.973 ± 0.044
17,TGATTTTCCA,0.988 ± 0.021
18,ACCGGGCGGC,1.05 ± 0.033
19,ATTAACTAAA,1.02 ± 0.017
20,GTGTTCGGGG,0.998 ± 0.021
21,TCTGGTCCGG,0.997 ± 0.015
22,GGGTCCCGGG,1.0586 ± 0.00036
23,TCCAGGGGGG,1.18 ± 0.27
24,TCACACGGCG,1.13 ± 0.18
25,GTGATACCGT,0.99 ± 0.0087

row,Sequence,switch fluorescence ratio
1,TGGCGCCCTT,1.01 ± 0.012
2,TTATGTTCGA,1.018 ± 0.005
3,AGAGGGGTTC,1.01 ± 0.029
4,TATCTCTACT,1.03 ± 0.017
5,GGGTTGAAGT,0.985 ± 0.008
6,TAGTTATGTG,0.9513 ± 0.0043
7,GGTGTGGAAT,1.02 ± 0.033
8,GAAAAAGACT,1.04 ± 0.089
9,TAAGCTCAAT,0.979 ± 0.012
10,AATTATTTT,0.993 ± 0.02
11,AGAGACACGG,1.03 ± 0.079
12,TTTCATTACT,1.04 ± 0.065
13,AATTGAAGGC,0.972 ± 0.022
14,AAGGAGTTGC,0.9733 ± 0.0062
15,GGGTTGTGGG,1 ± 0.043
16,GTTGTCGTAT,0.974 ± 0.051
17,TTCTTGTGTG,1 ± 0.041
18,CGTTGTAAAT,0.9823 ± 0.0071
19,TTATTTTCGA,0.999 ± 0.021
20,GAATGTATGA,0.99 ± 0.023
21,TCGGGGTGTT,1.001 ± 0.0096
22,ACCCGGGATT,1.13 ± 0.098
23,AAAGGGTTAG,1 ± 0.028
24,GGGGGGCTGG,0.979 ± 0.025
25,GAGACGGGGA,0.982 ± 0.021
